Data taken from PMC10454854, “Structural and Biochemical Analysis of the Recombination Mediator Protein RecR from Campylobacter jejuni” (International Journal of Molecular Sciences, 2023).

B1: Campylobacter jejuni RecR (natural protein, UniProt Q9PN35 1-190, looked up)
chain: MVKGLEKFNELVESFANLPTIGKKTAIRLAYHLCINNQIDGMKLAHNIENAIRFIKPCEQCGALSENELCEICSDKERNKNILCIVESPKDILTLEESQSYNGLYFVLDELNEEKLEKLKQIILKLNISELIFALTHSINSDATIFFIEDKFKGLNLTFSKIAQGIPSGVNLENVDLISLNKAMNFRTKI
notes: RecR of Campylobacter jejuni subsp. jejuni (ATCC 33291), residues 1-190; cloned by PCR from genomic DNA; Expressed from a pET49b variant with an N-terminal hexahistidine tag and a thrombin site; Residues 1-189 are seen in the structure; also called cjRecR; source: E. coli BL21 (DE3), purified (Ni-NTA, thrombin cleavage, Mono Q anion exchange); not shown: His6, N-terminal, cleaved
B2: 40-mer ssDNA (ssDNA)
DNA: TTATAGGCATATAGGAGTAATTTTCTTGGGCTATGCAGTA

Columns and labels:
[1] = molecular target: the molecule itself; experiment: SEC; cjRecR alone (~300 μg in 300 μL), Superdex 200 10/300, 20 mM Tris pH 8.0, 150 mM NaCl, 5 mM βME; size against gel-filtration standards
[2] = molecular target: the molecule itself; experiment: crystal structure; crystal of cjRecR (residues 1-190), four subunits in the asymmetric unit; sitting drop, 18 °C, 17% ethanol, 0.1 M Hepes pH 7.5, 0.25 M magnesium chloride; 2.6 Å
cjRecR = molecular target: T1, cjRecR (Campylobacter jejuni, UniProt Q9PN35 1-190); experiment: fluorescence polarization; Fluorescence polarization: 0.8 nM fluorescein 40-mer ssDNA, protein up to 100 uM, one-site fit; buffer, salt, pH and temperature not stated; details: protein: recombinant; tags: His6 tag removed with thrombin; chain copies: 4; single strand
T1 sequence: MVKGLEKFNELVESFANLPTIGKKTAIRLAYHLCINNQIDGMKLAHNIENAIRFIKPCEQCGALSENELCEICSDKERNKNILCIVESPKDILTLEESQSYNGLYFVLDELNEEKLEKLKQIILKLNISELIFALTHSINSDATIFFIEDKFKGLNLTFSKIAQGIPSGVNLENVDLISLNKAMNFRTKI

Binder	stoichiometry N [1]	stoichiometry N [2]	Kd (cjRecR) [µM]
B1	2	4	–
B2	–	–	6.8
